Ends that are not written are not given here. * marks the point of attachment. Biotin = O=C1N[C@H]2[C@H](CS[C@H]2CCCCC(=O)*)N1
How the values were obtained:
[1] = biological target: T1, GST-41.8 kD PDZ domain fusion protein (hypothetical 41.8 kD protein AA4-85; PDZ domain 1 of 1) (UniProt P08515 1-218 = GST); test: A assay
T1 construct: also called hypoth

[2] = biological target: T2, GST-RGS12 PDZ domain fusion protein (human regulator of G-protein signalling 12 AA35-103; PDZ domain 1 of 1) (human, UniProt P08515 1-218 = GST); test: A assay
T2 construct: also called RSG12

[3] = biological target: T3, GST-DVL1 PDZ domain fusion protein (human dishevelled segment polarity protein homolog AA248-340); PDZ domain … (human, UniProt P08515 1-218 = GST); test: A assay
[4] = biological target: T4, GST-CASK PDZ domain fusion protein (CASK AA495-584; PDZ domain 1 of 1) (mouse, UniProt P08515 1-218 = GST); test: A/G assays
T4 construct: also called mCASK

[5] = biological target: GST-LIM PDZ domain fusion protein (Human LIM protein AA29-112; PDZ domain 1 of 1) (human, UniProt P08515 1-218 = GST); test: A/G assays
[6] = biological target: GST-LIMK2 PDZ domain fusion protein (human LIM domain kinase 2 AA185-275; PDZ domain 1 of 1) (human, UniProt P08515 1-218 = GST); test: A/G assays
[7] = biological target: T5, GST-MPP2 PDZ domain fusion protein (maguk p55 subfamily member 2 (DLG2) AA185-273; PDZ domain 1 of 1) (UniProt P08515 1-218 = GST); test: A/G assays
T5 construct: also called MMP2

[8] = biological target: GST-NOS1 PDZ domain fusion protein (human neuronal nitric oxide synthase; PDZ domain 1 of 1) (human, UniProt P08515 1-218 = GST); test: A/G assays
[9] = biological target: GST-AF6 PDZ domain fusion protein (af-6 protein AA985-1077; PDZ domain 1 of 1) (UniProt P08515 1-218 = GST); test: A/G assays
[10] = biological target: GST-PTN-4 PDZ domain fusion protein (protein-tyrosine phosphatase meg1 AA774-862; PDZ domain 1 of 1) (UniProt P08515 1-218 = GST); test: A/G assays
[11] = biological target: GST-prIL16 PDZ domain fusion protein (putative interleukin 16 precursor AA170-383; PDZ domains 1-2 of 2) (UniProt P08515 1-218 = GST); test: A/G assays
[12] = biological target: T6, GST-KIAA0559 PDZ domain fusion protein (KIAA0559 AA766-870; PDZ1 of 1) (UniProt P08515 1-218 = GST); test: A/G assays
T6 construct: also called K559

[13] = biological target: GST-MPP1 PDZ domain fusion protein (55 Kd erythrocyte membrane protein AA101-186; PDZ domain 1 of 1) (UniProt P08515 1-218 = GST); test: A/G assays
[14] = biological target: T7, GST-KIAA0316 PDZ domain fusion protein (KIAA0316 AA197-284; PDZ domain 1 of 1) (UniProt P08515 1-218 = GST); test: A/G assays
T7 construct: also called K316

[15] = biological target: T8, GST-TAX40 PDZ domain fusion protein (human tax interaction protein 40 AA35-137; PDZ domain 1 of 1) (human, UniProt P08515 1-218 = GST); test: A/G assays
T8 construct: also called TX 40

[16] = biological target: GST-TIAM1 PDZ domain fusion protein (T-lymphoma invasion and metastasis inducing protein 1 AA1001-1088); PDZ 1 … (UniProt P08515 1-218 = GST); test: A/G assays
[17] = biological target: T9, GST-KIAA0303 PDZ domain fusion protein (KIAA0303 AA652-742; PDZ domain 1 of 1) (UniProt P08515 1-218 = GST); test: A/G assays
T9 construct: also called K303

[18] = biological target: T10, GST-CBP PDZ domain fusion protein (Cytohesin binding protein HE AA85-175; PDZ domain 1 of 1) (UniProt P08515 1-218 = GST); test: A/G assays
T10 construct: also called Prot

[19] = biological target: GST-MINT3 PDZ domain fusion protein (human MINT3 AA11-52; PDZ domain 1 of 1) (human, UniProt P08515 1-218 = GST); test: A/G assays
[20] = biological target: T11, GST-TAX2 PDZ domain fusion protein (human tax interaction protein 2 AA54-140; PDZ domain 1 of 1) (human, UniProt P08515 1-218 = GST); test: A/G assays
T11 construct: also called TX 2

[21] = biological target: T12, GST-TAX33 PDZ domain fusion protein (tax interaction protein 33 AA73-162; PDZ domain 1 of 1) (UniProt P08515 1-218 = GST); test: A/G assays
T12 construct: also called TX33

[22] = biological target: T13, GST-SYN1a PDZ domain fusion protein (alpha1-syntrophin AA96-189; PDZ domain 1 of 1) (UniProt P08515 1-218 = GST); test: A/G assays
T13 construct: also called SYN 1 alpha; SYNTR 1 alpha

[23] = biological target: T14, GST-TAX43 PDZ domain fusion protein (human tax interaction protein 43 AA15-85; PDZ domain 1 of 1) (human, UniProt P08515 1-218 = GST); test: A/G assays
T14 construct: also called TX 43

[24] = biological target: T15, GST-PSD95 PDZ domain fusion protein (human post-synaptic density protein 95 AA387-724; PDZ domains 1-3 of 3) (human, UniProt P08515 1-218 = GST); test: A and G assays
[25] = biological target: T16, GST-NeDLG PDZ domain fusion protein (presynaptic protein sao102, neuroendocrine-dlg; PDZ domains 1-2 of 3) (UniProt P08515 1-218 = GST); test: A and G assays
T16 construct: also called NeDLG1

[26] = biological target: T16, GST-NeDLG PDZ domain fusion protein …; test: G assay
[27] = biological target: T13, GST-SYN1a PDZ domain fusion protein …; test: G assay
[28] = biological target: T1, GST-41.8 kD PDZ domain fusion protein …; test: A/G assays
[29] = biological target: T2, GST-RGS12 PDZ domain fusion protein …; test: A/G assays
[30] = biological target: T3, GST-DVL1 PDZ domain fusion protein …; test: A/G assays
[31] = biological target: T1, GST-41.8 kD PDZ domain fusion protein …; test: A/G assays; remark: listed apart in the source
[32] = biological target: T15, GST-PSD95 PDZ domain fusion protein …; test: A/G assays
[33] = biological target: T16, GST-NeDLG PDZ domain fusion protein …; test: A/G assays

Chain of GST-MINT3 PDZ domain fusion protein (human MINT3 AA11-52; PDZ domain 1 of 1) (P08515 1-218, tags or fused parts left off): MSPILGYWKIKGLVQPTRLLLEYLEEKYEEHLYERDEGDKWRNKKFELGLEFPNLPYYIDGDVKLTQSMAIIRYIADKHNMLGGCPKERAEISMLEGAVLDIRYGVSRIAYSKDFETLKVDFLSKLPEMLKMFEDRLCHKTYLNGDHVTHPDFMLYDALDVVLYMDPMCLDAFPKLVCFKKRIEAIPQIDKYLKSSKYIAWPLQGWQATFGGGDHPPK
T14 sequence (P08515 1-218, tags or fused parts left off): as above
Chain of GST-LIMK2 PDZ domain fusion protein (human LIM domain kinase 2 AA185-275; PDZ domain 1 of 1) (P08515 1-218, tags or fused parts left off): as above
T11 sequence (P08515 1-218, tags or fused parts left off): as above
T4 sequence (P08515 1-218, tags or fused parts left off): as above
Chain of GST-PTN-4 PDZ domain fusion protein (protein-tyrosine phosphatase meg1 AA774-862; PDZ domain 1 of 1) (P08515 1-218, tags or fused parts left off): as above
T13 sequence (P08515 1-218, tags or fused parts left off): as above
T12 sequence (P08515 1-218, tags or fused parts left off): as above
T2 sequence (P08515 1-218, tags or fused parts left off): as above
T8 sequence (P08515 1-218, tags or fused parts left off): as above
T10 sequence (P08515 1-218, tags or fused parts left off): as above
Chain of GST-MPP1 PDZ domain fusion protein (55 Kd erythrocyte membrane protein AA101-186; PDZ domain 1 of 1) (P08515 1-218, tags or fused parts left off): as above
Chain of GST-NOS1 PDZ domain fusion protein (human neuronal nitric oxide synthase; PDZ domain 1 of 1) (P08515 1-218, tags or fused parts left off): as above
T16 sequence (P08515 1-218, tags or fused parts left off): as above
T6 sequence (P08515 1-218, tags or fused parts left off): as above
T9 sequence (P08515 1-218, tags or fused parts left off): as above
Chain of GST-prIL16 PDZ domain fusion protein (putative interleukin 16 precursor AA170-383; PDZ domains 1-2 of 2) (P08515 1-218, tags or fused parts left off): as above
Chain of GST-TIAM1 PDZ domain fusion protein (T-lymphoma invasion and metastasis inducing protein 1 AA1001-1088); PDZ 1 … (P08515 1-218, tags or fused parts left off): as above
T1 sequence (P08515 1-218, tags or fused parts left off): as above
T15 sequence (P08515 1-218, tags or fused parts left off): as above
T7 sequence (P08515 1-218, tags or fused parts left off): as above

B1: KV1.3 C-terminal PL peptide AA33L, biotinylated (peptide)
peptide: Biotin-TTNNNPNSAVNIKKIFTDV
- binding result [1]: binds
- binding result [2]: binds
- binding result [3]: binds
- binding result [4]: no binding
- binding result [5]: no binding
- binding result [6]: no binding
- binding result [7]: no binding
- binding result [8]: no binding
- binding result [9]: no binding
- binding result [10]: no binding
- binding result [11]: no binding
- binding result [12]: no binding
- binding result [13]: no binding
- binding result [14]: no binding
- binding result [15]: no binding
- binding result [16]: no binding
- binding result [17]: no binding
- binding result [18]: no binding
- binding result [19]: no binding
- binding result [20]: no binding
- binding result [21]: no binding
- binding result [22]: no binding
- binding result [23]: no binding
- binding result [24]: binds
- binding result [25]: binds

B2: DOCK2 C-terminal PL peptide AA40L, biotinylated (peptide)
peptide: Biotin-LASKSAEEGKQIPDSLSTDL
- binding result [26]: binds
- binding result [27]: binds
- binding result [4]: no binding
- binding result [5]: no binding
- binding result [6]: no binding
- binding result [7]: no binding
- binding result [8]: no binding
- binding result [9]: no binding
- binding result [10]: no binding
- binding result [11]: no binding
- binding result [28]: no binding
- binding result [12]: no binding
- binding result [13]: no binding
- binding result [29]: no binding
- binding result [14]: no binding
- binding result [30]: no binding
- binding result [15]: no binding
- binding result [16]: no binding
- binding result [17]: no binding
- binding result [18]: no binding
- binding result [19]: no binding
- binding result [20]: no binding
- binding result [21]: no binding
- binding result [23]: no binding
- binding result [24]: binds

B3: CD166 (CD6L) C-terminal PL peptide AA20L, biotinylated (peptide)
peptide: Biotin-DLGNMEENKKLEENNHKTEA
- binding result [31]: no binding
- binding result [4]: no binding
- binding result [5]: no binding
- binding result [6]: no binding
- binding result [7]: no binding
- binding result [8]: no binding
- binding result [9]: no binding
- binding result [10]: no binding
- binding result [11]: no binding
- binding result [12]: no binding
- binding result [13]: no binding
- binding result [29]: no binding
- binding result [14]: no binding
- binding result [30]: no binding
- binding result [15]: no binding
- binding result [16]: no binding
- binding result [17]: no binding
- binding result [18]: no binding
- binding result [19]: no binding
- binding result [20]: no binding
- binding result [32]: no binding
- binding result [33]: no binding
- binding result [21]: no binding
- binding result [22]: no binding
- binding result [23]: no binding

B4: CD148 (DEP-1) C-terminal PL peptide AA19L (ends GYIA), biotinylated (peptide)
peptide: Biotin-ENLAPVTTFGKTNGYIA
- binding result [31]: no binding
- binding result [4]: no binding
- binding result [5]: no binding
- binding result [6]: no binding
- binding result [7]: no binding
- binding result [8]: no binding
- binding result [9]: no binding
- binding result [10]: no binding
- binding result [11]: no binding
- binding result [12]: no binding
- binding result [13]: no binding
- binding result [29]: no binding
- binding result [14]: no binding
- binding result [30]: no binding
- binding result [15]: no binding
- binding result [16]: no binding
- binding result [17]: no binding
- binding result [18]: no binding
- binding result [19]: no binding
- binding result [20]: no binding
- binding result [32]: no binding
- binding result [33]: no binding
- binding result [21]: no binding
- binding result [22]: no binding
- binding result [23]: no binding
